Experimental data reported in article PMC12441119 (2025).

Legend:
[1] = molecular target: T1, STK4 (residues 1–326) K59R N239A (human, UniProt Q13043 1-326, K59R | N239A); test: ITC; printed as R239A
T1 sequence: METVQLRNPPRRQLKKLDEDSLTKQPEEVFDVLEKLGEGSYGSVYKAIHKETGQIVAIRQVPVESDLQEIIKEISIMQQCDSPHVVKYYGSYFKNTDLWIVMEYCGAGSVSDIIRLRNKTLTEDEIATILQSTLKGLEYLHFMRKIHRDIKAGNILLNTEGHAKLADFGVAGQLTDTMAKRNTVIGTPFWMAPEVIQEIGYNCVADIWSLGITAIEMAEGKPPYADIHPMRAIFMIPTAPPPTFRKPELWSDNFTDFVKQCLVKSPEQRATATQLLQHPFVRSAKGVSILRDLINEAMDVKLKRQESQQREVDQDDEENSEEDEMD

[2] = molecular target: T2, STK4 (residues 1–326) K59R (human, UniProt Q13043 1-326, K59R); test: ITC
T2 sequence: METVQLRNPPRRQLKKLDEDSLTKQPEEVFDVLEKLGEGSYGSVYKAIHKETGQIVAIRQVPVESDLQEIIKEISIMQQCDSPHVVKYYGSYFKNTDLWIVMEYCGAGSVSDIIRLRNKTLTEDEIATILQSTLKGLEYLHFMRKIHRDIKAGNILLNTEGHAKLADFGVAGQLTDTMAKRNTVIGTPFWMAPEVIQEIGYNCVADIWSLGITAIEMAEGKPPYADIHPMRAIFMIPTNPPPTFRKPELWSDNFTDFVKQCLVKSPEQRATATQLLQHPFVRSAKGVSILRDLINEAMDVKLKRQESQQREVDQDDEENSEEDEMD

[3] = molecular target: T3, STK4 (residues 11–326) K59R (human, UniProt Q13043 11-326, K59R); test: ITC
T3 sequence: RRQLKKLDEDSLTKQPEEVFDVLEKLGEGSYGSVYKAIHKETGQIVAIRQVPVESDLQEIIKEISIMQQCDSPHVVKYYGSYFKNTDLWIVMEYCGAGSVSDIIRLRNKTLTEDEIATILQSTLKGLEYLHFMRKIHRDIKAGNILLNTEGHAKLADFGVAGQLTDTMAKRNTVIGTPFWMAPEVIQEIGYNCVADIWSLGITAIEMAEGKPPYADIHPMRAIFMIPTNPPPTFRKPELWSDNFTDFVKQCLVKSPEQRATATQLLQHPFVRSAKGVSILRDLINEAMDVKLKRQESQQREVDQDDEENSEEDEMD

B1: HOIP (residues 854–1072) (domain or fragment)
chain: EYQAQGLAMYLQENGIDCPKCKFSYALARGGCMHFHCTQCRHQFCSGCYNAFYAKNKCPEPNCRVKKSLHGHHPRDCLFYLRDWTALRLQKLLQDNNVMFNTEPPAGARAVPGGGCRVIEQKEVPNGLRDEACGKETPAGYAGLCQAHYKEYLVSLINAHSLDPATLYEVEELETATERYLHVRPQPLAGEDPPAYQARLLQKLTEEVPLGQSIPRRRK
[1]
  Kd: 149 µM

B2: HOIP (residues 697–1072) (domain or fragment)
chain: QECAVCGWALPHNRMQALTSCECTICPDCFRQHFTIALKEKHITDMVCPACGRPDLTDDTQLLSYFSTLDIQLRESLEPDAYALFHKKLTEGVLMRDPKFLWCAQCSFGFIYEREQLEATCPQCHQTFCVRCKRQWEEQHRGRSCEDFQNWKRMNDPEYQAQGLAMYLQENGIDCPKCKFSYALARGGCMHFHCTQCRHQFCSGCYNAFYAKNKCPEPNCRVKKSLHGHHPRDCLFYLRDWTALRLQKLLQDNNVMFNTEPPAGARAVPGGGCRVIEQKEVPNGLRDEACGKETPAGYAGLCQAHYKEYLVSLINAHSLDPATLYEVEELETATERYLHVRPQPLAGEDPPAYQARLLQKLTEEVPLGQSIPRRRK
[2]
  Kd: 36.4 µM
[3]
  Kd: 34.7 µM
